Results published in patent US20180216091A1.

Target: glucose dehydrogenase harboring a LPKTA motive
Assay: not given

Row | Binder | activity with different LPKTA concentrations
1 | Listeria monocytogenes Sortase A variant C (enzyme) ANYDKDAVVGSIAVPSVDVNLLVFKGTNTANLLAGATTMRSDQVMGKGNYPLAGHHMRDESMLFGPIMKVKKGDKIYLTDLENLYEYTVTETKTIDETEVSVIDDTKDARITLITCDKPTETTKRFVAVGELEKTEKLTKELENKYFPSKMRGSHHHHHHGS | The graphs show the higher activity of Listeria monocytogenes Sortase A variant C
2 | N-terminally truncated Streptococcus pyogenes sortase A (protein) MRGSHHHHHHGSVLQAQMAAQQLPVIGGIAIPELGINLPIFKGLGNTELIYGAGTMKEEQVMGGENNYSLASHHIFGITGSSQMLFSPLERAQNGMSIYLTDKEKIYEYIIKDVFTVAPERVDVIDDTAGLKEVTLVTCTDIEATERIIVKGELKTEYDFDKAPADVLKAFNHSYNQVST | a substrate inhibition effect for St.py. SrtA at concentrations higher than 300 µM

Target: glucose dehydrogenase containing the sortase-motif LPXTG
Assay: cell-based or functional assay

Row | Binder | maximum dE/min [dE/min]
3 | Listeria monocytogenes Sortase A variant A (enzyme) EKDATFDFESVQLPSMTSVIKGAANYDKDAVVGSIAVPSVDVNLLVFKGTNTANLLAGATTMRSDQVMGKGNYPLAGHHMRDESMLFGPIMKVKKGDKIYLTDLENLYEYTVTETKTIDETEVSVIDDTKDARITLITCDKPTETTKRFVAVGELEKTEKLTKELENKYFPSKMRGSHHHHHHGS | 0.037
4 | Listeria monocytogenes Sortase A variant B (enzyme) SVIKGAANYDKDAVVGSIAVPSVDVNLLVFKGTNTANLLAGATTMRSDQVMGKGNYPLAGHHMRDESMLFGPIMKVKKGDKIYLTDLENLYEYTVTETKTIDETEVSVIDDTKDARITLITCDKPTETTKRFVAVGELEKTEKLTKELENKYFPSKMRGSHHHHHHGS | 0.026
5 | Listeria monocytogenes Sortase A variant C (enzyme) ANYDKDAVVGSIAVPSVDVNLLVFKGTNTANLLAGATTMRSDQVMGKGNYPLAGHHMRDESMLFGPIMKVKKGDKIYLTDLENLYEYTVTETKTIDETEVSVIDDTKDARITLITCDKPTETTKRFVAVGELEKTEKLTKELENKYFPSKMRGSHHHHHHGS | 0.113
6 | Listeria monocytogenes Sortase A variant D (enzyme) ANYDKDAVVGSIAVPSVDVNLLVFKGTNTANLLAGATTMRSDQVMGKGNYPLAGHHMRDESMLFGPIMKVKKGDKIYLTDLENLYEYTVTETKTIDETEVSVIDDTKDARITLITCDKPTETTKRFVAVGELEKTEKMRGSHHHHHHGS | 0.044
7 | Listeria monocytogenes Sortase A variant E (enzyme) GSIAVPSVDVNLLVFKGTNTANLLAGATTMRSDQVMGKGNYPLAGHHMRDESMLFGPIMKVKKGDKIYLTDLENLYEYTVTETKTIDETEVSVIDDTKDARITLITCDKPTETTKRFVAVGELEKTEKLTKELENKYFPSKMRGSHHHHHHGS | 0.019
